The target in this experiment is T1, Lumio-Green-labelled RFXV-motif-possessing peptide derived from WNK4 (EP4543) (not fully specified; Lumio Green fluorophore conjugated to the N-terminal linker CCPGCCGGGG).
T1 construct: N-terminal linker required for conjugating to the Lumio Green fluorophore; stretch of WNK4 with the RFQV motif; also called WNK peptide; RFXV peptide; source: synthetic peptide (GL Biochem)
T1 peptide: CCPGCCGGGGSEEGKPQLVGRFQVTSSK
Description: fluorescence polarisation; SPAK protein titrated against 10 nM Lumio-Green-labelled peptide; 25°C; 50 mM Tris-HCl pH 7.5, 150 mM NaCl, 2 mM DTT; one-site-specific binding model. The settings on record: both partners purified.

B1: human SPAK 452-547 with L491A (domain or fragment)
chain: not shown
notes: SPAK, human, residues 452-547 (end), the CCT domain, L491A; pGEX-6P-1 construct; GST-SPAK proteins were eluted with 20 mM glutathione and no cleavage of GST is described, so GST was probably still on the protein; also called SPAK CCT domain L491A (equivalent to L502 in mouse); source: E. coli BL21, purified (glutathione-Sepharose)
With B1, the “fold reduction of binding against wild-type SPAK 452-547” value was approximately 100 fold.

The values are drawn from publication PMC4512625, “Critical role of the SPAK protein kinase CCT domain in controlling blood pressure” (Human Molecular Genetics, 2015).
